First the molecules themselves.
B1: Chromodomain-helicase-DNA-binding protein 4, residues 365 to 417; numbered along this chain, Q14839 (parent)
chain: YETDHQDYCEVCQQGGEIILCDTCPRAYHMVCLDPDMEKAPEGKWSCPHCEKE

± gives the uncertainty stated by the source.

Abundance fitness data for 167 variants are collected here from the Human Domainome abundance scans (Beltran et al. 2025).

The variants in this data set derive from B1. The data set is described as follows: abundance fitness (aPCA) (normalised: wild type 0, dead -1); higher = more abundant; growth selection in yeast, the domain comes from the species named. Particulars: Homo sapiens.
Turning to E2T, the abundance fitness was 0.349 ± 0.23.

Turning to E2I, the abundance fitness was 0.176 ± 0.2.

Turning to E2L, the abundance fitness was found to be 0.386 ± 0.13.

Consider E2R, for which the abundance fitness was 0.406 ± 0.15.

For the variant E2M, the abundance fitness came to 0.621 ± 0.28.

On to E2A, for which the abundance fitness is -0.143 ± 0.12.

For T3M, the abundance fitness came out at 0.19 ± 0.18.

On to T3Q, for which the abundance fitness was -0.29 ± 0.26.

T3Y: the abundance fitness was 0.034 ± 0.3.

Turning to T3C, the abundance fitness came out at 0.124 ± 0.19.

For T3N, the abundance fitness is -0.106 ± 0.2.

For P25Y, the abundance fitness is -0.135 ± 0.25.

As for P25T, the abundance fitness is -0.192 ± 0.22.

In the case of P25H, the abundance fitness is -0.485 ± 0.46.

Regarding P25M, the abundance fitness is -0.194 ± 0.15.

Regarding P25S, the abundance fitness amounted to 0.068 ± 0.11.

As for P25C, the abundance fitness was determined as 0.034 ± 0.15.

With P25L, the abundance fitness was -0.044 ± 0.12.

As to Q14R, the abundance fitness was 0.162 ± 0.083.

In the case of Q14W, the abundance fitness is -0.342 ± 0.13.

Regarding Q14N, the abundance fitness was -0.362 ± 0.16.

Regarding Q14K, the abundance fitness is 0.002 ± 0.16.

As to Q14S, the abundance fitness was -0.239 ± 0.095.

G43S: the abundance fitness was -0.099 ± 0.12.

With G43K, the abundance fitness is -0.012 ± 0.2.

G43F: the abundance fitness was -0.35 ± 0.18.

In the case of G43C, the abundance fitness was -0.217 ± 0.15.

Turning to G43W, the abundance fitness is -0.164 ± 0.11.

Regarding G43L, the abundance fitness was -0.232 ± 0.099.

As for G43M, the abundance fitness is -0.151 ± 0.14.

D7M: the abundance fitness was -0.037 ± 0.19.

In the case of D7R, the abundance fitness is -0.005 ± 0.11.

In the case of D7I, the abundance fitness was -0.458 ± 0.22.

Turning to D7K, the abundance fitness is -0.075 ± 0.2.

With D7F, the abundance fitness is -0.544 ± 0.26.

As to D7C, the abundance fitness is -1.06 ± 0.33.

Turning to E17S, the abundance fitness is -0.033 ± 0.09.

As for E17N, the abundance fitness amounted to 0.115 ± 0.13.

In the case of E17R, the abundance fitness is -0.115 ± 0.086.

E17M: the abundance fitness was -0.149 ± 0.15.

For the variant D34S, the abundance fitness was -0.146 ± 0.11.

Take D34G: the abundance fitness was 0.037 ± 0.094.

On to D34P, for which the abundance fitness is -0.149 ± 0.18.

Consider D34Q, for which the abundance fitness was -0.257 ± 0.2.

With D34L, the abundance fitness is -0.025 ± 0.097.

On to D34V, for which the abundance fitness was -0.094 ± 0.099.

On to D34T, for which the abundance fitness was -0.047 ± 0.14.

Y28R: the abundance fitness is -0.254 ± 0.094.

Turning to Y28P, the abundance fitness is -0.704 ± 0.14.

For the variant Y28C, the abundance fitness is -0.582 ± 0.16.

Regarding Y28Q, the abundance fitness is -0.395 ± 0.14.

Turning to Y28F, the abundance fitness was 0.012 ± 0.16.

Take Y28M: the abundance fitness stood at 0.048 ± 0.12.

Take Y28E: the abundance fitness is -0.649 ± 0.12.

As to Y1V, the abundance fitness amounted to 0.348 ± 0.26.

Turning to Y1S, the abundance fitness came out at 0.108 ± 0.35.

In the case of Y1W, the abundance fitness was 0.441 ± 0.17.

For Y1R, the abundance fitness was found to be 0.048 ± 0.45.

On to V11S, for which the abundance fitness is -0.085 ± 0.1.

Turning to V11Y, the abundance fitness was determined as 0.008 ± 0.14.

As for V11F, the abundance fitness is 0.262 ± 0.14.

On to V11L, for which the abundance fitness was 0.134 ± 0.094.

As to V11C, the abundance fitness is 0.063 ± 0.12.

Regarding V11G, the abundance fitness is 0.129 ± 0.084.

As to V11N, the abundance fitness is 0.223 ± 0.16.

As to D4I, the abundance fitness is -0.089 ± 0.13.

Regarding D4K, the abundance fitness is 0.23 ± 0.17.

On to D4M, for which the abundance fitness came out at 0.299 ± 0.13.

As to D4W, the abundance fitness is -0.173 ± 0.1.

Regarding D4N, the abundance fitness is -0.114 ± 0.17.

As for D4Y, the abundance fitness turned out to be 0.004 ± 0.23.

Take C24L: the abundance fitness is -1.19 ± 0.16.

With C24Q, the abundance fitness is -1.15 ± 0.28.

For the variant C24T, the abundance fitness is -0.768 ± 0.21.

On to C24V, for which the abundance fitness was -0.99 ± 0.13.

With C24A, the abundance fitness is -1.1 ± 0.15.

Regarding C24I, the abundance fitness was -1.18 ± 0.36.

For the variant C24F, the abundance fitness was -0.882 ± 0.27.

In the case of R26V, the abundance fitness was -0.226 ± 0.1.

For the variant R26K, the abundance fitness was -0.065 ± 0.17.

For the variant R26T, the abundance fitness is -0.191 ± 0.12.

On to R26G, for which the abundance fitness was -0.112 ± 0.094.

Turning to R26S, the abundance fitness is -0.134 ± 0.11.

As to R26E, the abundance fitness was -0.356 ± 0.17.

Take R26F: the abundance fitness was -0.288 ± 0.14.

As for R26P, the abundance fitness was -0.348 ± 0.17.

Take D22Y: the abundance fitness is -0.42 ± 0.23.

With D22I, the abundance fitness was found to be 0.03 ± 0.2.

As to D22H, the abundance fitness was -0.528 ± 0.28.

Regarding D22Q, the abundance fitness is 0.083 ± 0.21.

With P35R, the abundance fitness was 0.029 ± 0.1.

Take P35Q: the abundance fitness is -0.284 ± 0.22.

P35A: the abundance fitness was -0.016 ± 0.097.

P35V: the abundance fitness was -0.04 ± 0.098.

Consider P35M, for which the abundance fitness is -0.054 ± 0.16.

Turning to P35Y, the abundance fitness was determined as 0.272 ± 0.26.

In the case of H5S, the abundance fitness amounted to 0.224 ± 0.099.

Regarding H5K, the abundance fitness was -0.044 ± 0.15.

Turning to H5F, the abundance fitness is -0.059 ± 0.19.

On to H5G, for which the abundance fitness was 0.158 ± 0.081.

Regarding H5A, the abundance fitness is 0.283 ± 0.098.

On to H5I, for which the abundance fitness is 0.092 ± 0.15.

Turning to H5C, the abundance fitness was -0.083 ± 0.27.

As to D36A, the abundance fitness was -0.079 ± 0.12.

Turning to D36F, the abundance fitness is -0.325 ± 0.19.

D36R: the abundance fitness was -0.055 ± 0.12.

In the case of D36E, the abundance fitness was determined as 0.13 ± 0.17.

D36Q: the abundance fitness was -0.05 ± 0.19.

Take D36L: the abundance fitness was -0.5 ± 0.12.

Take C12R: the abundance fitness was -0.87 ± 0.1.

Turning to C12W, the abundance fitness is -0.948 ± 0.13.

Consider C12N, for which the abundance fitness was -0.605 ± 0.28.

On to C12T, for which the abundance fitness is -0.46 ± 0.13.

Regarding C12F, the abundance fitness was -0.529 ± 0.37.

In the case of C12Q, the abundance fitness was -0.49 ± 0.27.

Consider C12V, for which the abundance fitness was -0.887 ± 0.1.

For the variant C12E, the abundance fitness is -0.683 ± 0.12.

For the variant A40Q, the abundance fitness was -0.208 ± 0.16.

On to A40Y, for which the abundance fitness was -0.462 ± 0.17.

For A40G, the abundance fitness was -0.157 ± 0.1.

On to A40S, for which the abundance fitness was -0.126 ± 0.094.

In the case of A40F, the abundance fitness is 0.015 ± 0.18.

On to E10H, for which the abundance fitness is -0.383 ± 0.17.

For E10R, the abundance fitness was -0.022 ± 0.11.

For E10K, the abundance fitness was -0.063 ± 0.15.

For the variant V31N, the abundance fitness stood at 0.113 ± 0.21.

Turning to V31L, the abundance fitness is 0.258 ± 0.098.

Regarding V31M, the abundance fitness is -0.417 ± 0.16.

Consider V31H, for which the abundance fitness is 0.104 ± 0.18.

V31K: the abundance fitness is 0.027 ± 0.17.

Consider V31C, for which the abundance fitness stood at 0.138 ± 0.18.

V31T: the abundance fitness is -0.431 ± 0.17.

As to Y8A, the abundance fitness was -0.052 ± 0.09.

With Y8D, the abundance fitness was -0.269 ± 0.13.

Take Y8G: the abundance fitness was -0.291 ± 0.08.

In the case of Y8M, the abundance fitness was 0.011 ± 0.12.

In the case of Y8P, the abundance fitness turned out to be 0.033 ± 0.11.

In the case of Y8W, the abundance fitness is -0.107 ± 0.14.

In the case of Y8R, the abundance fitness is 0.155 ± 0.098.

Take Y8I: the abundance fitness was -0.099 ± 0.17.

Consider C32L, for which the abundance fitness was -0.776 ± 0.12.

As to C32K, the abundance fitness was -0.817 ± 0.22.

For the variant C32S, the abundance fitness was -0.952 ± 0.14.

In the case of C32P, the abundance fitness was -0.794 ± 0.19.

Take C32D: the abundance fitness is -0.486 ± 0.21.

Turning to C32N, the abundance fitness is -1.04 ± 0.39.

Turning to C32A, the abundance fitness was -0.737 ± 0.14.

As to C32I, the abundance fitness was -0.916 ± 0.24.

On to C32M, for which the abundance fitness was -0.687 ± 0.15.

As for P48I, the abundance fitness was -0.308 ± 0.27.

Take P48G: the abundance fitness was -0.068 ± 0.098.

Take P48C: the abundance fitness is -0.001 ± 0.19.

In the case of P48R, the abundance fitness stood at 0.063 ± 0.1.

On to P48D, for which the abundance fitness was -0.16 ± 0.19.

On to P41D, for which the abundance fitness amounted to 0.022 ± 0.17.

As for P41V, the abundance fitness is -0.218 ± 0.12.

Regarding P41N, the abundance fitness was found to be 0.435 ± 0.23.

In the case of P41K, the abundance fitness was -0.015 ± 0.18.

Regarding P41F, the abundance fitness is 0.034 ± 0.17.

Take P41I: the abundance fitness was determined as 0.055 ± 0.17.

Take P41L: the abundance fitness is -0.092 ± 0.1.

With S46H, the abundance fitness amounted to 0.068 ± 0.3.

Turning to S46M, the abundance fitness is -0.197 ± 0.15.

Regarding S46N, the abundance fitness came to 0.039 ± 0.17.

In the case of S46A, the abundance fitness is -0.18 ± 0.11.

In the case of S46K, the abundance fitness was -0.65 ± 0.18.

For I18M, the abundance fitness turned out to be 0.022 ± 0.11.
